Data taken from US11312781B2, “Antigen binding molecules that bind LIGHT” (Capella Bioscience Ltd., priority 2018, dated 2022).

Experiments:
[1] = target: T1, membrane LIGHT stably expressed on EL4 cells (Homo sapiens, UniProt O43557); assay: Binding ratio of mAbs bound to membrane LIGHT by flow cytometry (EL4 cells); conditions: FIG. 7
T1 construct: expressed in transfected cells; host or cells: EL4 mouse lymphoma cells, stably transduced (Cheung et al. J. Immunol. 2009)
Experimental: Stably transduced LIGHT expressing EL4 cells (mouse lymphoma cell line; EL4-LIGHT; Cheung et al. J. Immunol. 2009; 183:7286-7296) were used for the flow cytometry-based binding analysis. EL4-LIGHT cells (0.25×10^6 per well) that had been washed in were incubated with anti-LIGHT IgG4 clones (0.002-100 nM) for 30 min at 4° C. The cells were washed and anti-human IgG-APC conjugate (diluted 1:500, Biolegend cat. No. 409306) was used for detecting anti-LIGHT IgG bound on EL4-LIGHT cells.
FIG. 7 depicts the flow cytometry analysis of the anti-membrane LIGHT mAbs (3B04 and 3D12) binding to LIGHT stably expressed on EL4 cells. The maximum signal of the IgG4 mAbs 3B04 and 3D12 binding to membrane LIGHT is approximately 40000 MFI. In contrast anti-LIGHT mAbs F19 and F23 (IgG4 mAbs from EP2292663) gave a maximal signal of approximately 120000 MFI. The ratio of binding of mAb F19 and mAb F23 is approximately 3 times that of the anti-membrane LIGHT mAbs 3B04 and 3D12. […] Other mAbs of this invention; 2E08, 3A07, 3C10, 3E09 and 2B11 also bind LIGHT in a 1:1 ratio when compared to mAbs F19 and F23 by flow cytometry.

[2] = tested on: wild type and mutated membrane LIGHT; assay: Alanine scanning mutagenesis of membrane LIGHT and flow cytometry (HEK293FF cells); assay type: binding, human; conditions: single substitutions F57A to E86A and four amino acid substitutions 60-63 to 96-99
Source text: The full length LIGHT gene was synthesized by GeneArt (ThermoFisher Scientific) and cloned into the mammalian expression vector pcDNA 3.1(+). The following Ala mutations were introduced into the LIGHT gene: 30 single amino acid alanine substitutions from F57A to E86A; 2 single amino acid alanine substitutions; G188A, R189A; one serine substitution, A190S; 17 single amino acid alanine substitutions; T191A to V207A and 10 four amino acid alanine substitutions, 60-63, 64-67, 68-71, 72-75, 76-79, 80-83, 84-87, 88-91, 92-95 and 96-99. Constructs were reconstituted according to manufacture instructions, using DEPC-treated and sterile filtered water. Competent TOP10 E. coli cells were transformed with 100 ng of each construct and a single colony from each construct was picked and used to inoculate 10 ml of LB/carb100/glu2% medium and grown overnight at 37° C., 200 rpm. The extraction of the construct DNA was performed using the Qiagen QIAprep Spin Miniprep Kit (250) and the concentration was determined by measuring the O.D. at 260 nm in a spectrophotometer.
HEK293FF cells were cultured in Freestyle™293 expression medium (ThermoFisher scientific cat. no. 12338018) supplemented with 2 mM L-Glutamine. The day of transfection the cells were seeded in a 24-well plate at 0.6×10^6 cells/well. Lipofectamine 2000 (ThermoFisher scientific), 3 μl, was mixed with 50 μl OptiMEM medium (GIBCO) and then added to 50 μl Opti-MEM medium containing 3 ug plasmid DNA and incubated for 20 min at RT to form DNA-Lipofectamine 2000 complexes which were then added to the HEK293FF cells and incubated at 37° C., 5% CO2 for 24 hours. For each construct, in duplicate, 0.60×10^6 cells/well were used in a 96 well round bottom plate. Cells were centrifuged for 3 minutes at 300×g at 4° C., the supernatant discarded and the cells washed with 150 μl FACS buffer (0.5% FBS in phosphate buffered saline). This process was repeated 3 times. For each construct, […] cells/well were incubated with anti-LIGHT antibodies at the EC50 concentration and with positive controls of anti-LIGHT mAb MAB664 (R&D Systems), mAb F19 (EP2292663) or LTBR-Fc (R&D Systems), in a final volume of 50 μl/well for 30 min at 4° C., with shaking. The wells were washed 3 times as above and 50 μl/well of goat anti-human IgG FITC (1:1500 dilution in FACS buffer, SIGMA F9512-2ML) or goat anti-mouse APC (1/500 dilution in FACS buffer, BDBioscience 550826), as appropriate, was added to the wells and incubated for 30 min at 4° C. protected from the light, with shaking. The cells were then washed as above, resuspended in 100 μl of FACS buffer and binding of the antibodies to the constructs was measured using flow cytometry and a total of 10,000 cells were acquired for each sample. Controls of buffer and secondary antibody only as well as HEK293FF non transfected cells were also used.
All of the mAbs of this invention show a similar profile in that their epitope is located at amino acids 188-197 of LIGHT. […] The epitope of the mAbs of this invention defined by alanine scanning mutagenesis are residues 188-197 of LIGHT. This is visually depicted in FIG. 8 utilising a 3D visualisation of the LIGHT trimer from the crystal structure of LIGHT from Liu et al. (Structure 22: 1252-62; 2014). This would result in the mAbs binding to the “tip” of the LIGHT trimer and explaining the 1:1 binding. The impact of this epitope would result in […] less dosing of mAb 3B04 being required to neutralise membrane LIGHT compared to, for example, mAbs F19 and F23 (of EP2292663) which bind both soluble and membrane LIGHT equally and bind LIGHT in the ratio 3:1.

T1 sequence (O43557 whole entry): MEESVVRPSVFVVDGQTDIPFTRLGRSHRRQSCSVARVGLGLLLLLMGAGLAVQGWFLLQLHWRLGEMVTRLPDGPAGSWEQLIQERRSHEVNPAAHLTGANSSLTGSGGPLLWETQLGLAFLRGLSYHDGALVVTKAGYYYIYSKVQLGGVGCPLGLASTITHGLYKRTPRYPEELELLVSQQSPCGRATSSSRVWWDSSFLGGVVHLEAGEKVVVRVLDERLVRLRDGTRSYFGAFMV

Molecule	Maximum signal of binding to membrane LIGHT [1]	Binding to LIGHT alanine substitution constructs versus WT LIGHT [2]
3B04: parental mouse anti-membrane LIGHT antibody, VL SEQ ID NO 1, VH SEQ ID NO 5; tested as chimeric human IgG4 mAb (antibody, listed as Homo sapiens, V domains shown) VH: QVQLQQPGAELVRPGASVTLSCKASGYTFTDYEMHWVKQTPVHGLEWIGEIDPETGDTAYSQKFKGKATLTADKSSSTAYMEFRSLTSEDSAVYYCSRETDYFFDYWGQGTTLTVSS VL: DIQMTQTPASLSASVGETVTITCGASENIYGALNWYQRKQGKSPQLLIYGATNLADGMSSRFSGSGSGRQYSLKISSLHPDDFATYYCQNVLTTPWTFGGGTKLEIKR	approximately 40000 MFI	no difference in binding
3D12: parental mouse anti-membrane LIGHT antibody, VL SEQ ID NO 41, VH SEQ ID NO 45; tested as chimeric human IgG4 mAb (antibody, listed as Homo sapiens, V domains shown) VH: QVQLQQPGAELVRPGASVTLSCKASDYTFTDSEIHWVKQTPVHGLEWIGEIDPETGGTAYNQKFKGKATLTADKSSSTAYMELRSLTSEDSAVYYCSRETDYFFDYWGQGTTLTVSS VL: DIQMTQSPASLSASVGETVTITCGASENIYGALNWYQRKQGKSPQLLIYGATNLADGMSSRFSGSGSGRQYSLKISSLHPDDVATYYCQNVLSTPWTFGGGTKLEIKR	approximately 40000 MFI	no difference in binding
